{
  "source": "patent US20160052997A1",
  "target": "HA of A/CA/04/09 (H1N1) virus (Influenza A virus A/CA/04/09 (H1N1))",
  "experiment": "cell-based or functional assay",
  "data": [
    {"substance": "CT-P27", "values": [
      {"measurement": "EC50, microneutralization test", "value": 0.62, "unit": "µg/mL"}
    ]}
  ]
}
